# Ends that are not written are not given here.
# Target: T1, cMet-Fc fusion protein (extracellular domain of the cMet receptor expressed as an Fc-fusion protein) (human, UniProt P08581 25-932)
# T1 construct: extracellular domain; also called soluble cMet-Fc-fusion protein; soluble cMet receptor; not shown: Fc part
# Assay: phage ELISA on cMet-Fc, competitor HGF 100 ng/mL
# Protocol: (§1) These assays were conducted using the peptide-displaying phage discovered from the initial selection and screening campaigns using the first generation peptide libraries. Briefly, 96-well plates were coated overnight at 4 C with 0.5 μg/mL of cMet-Fc fusion protein or TRAIL-Fc fusion protein (background). The plates were blocked for 2 hours at 37 C with 3% BSA in PBST. […] This was followed by an addition of 30 μL of peptide-displaying phage overnight culture to each well. The plates were incubated for 2 hours at room temperature, washed with PBST and cMet-binding peptide-displaying phage was detected using an HRP-conjugated anti-M13 antibody.
# T1 sequence (P08581 25-932): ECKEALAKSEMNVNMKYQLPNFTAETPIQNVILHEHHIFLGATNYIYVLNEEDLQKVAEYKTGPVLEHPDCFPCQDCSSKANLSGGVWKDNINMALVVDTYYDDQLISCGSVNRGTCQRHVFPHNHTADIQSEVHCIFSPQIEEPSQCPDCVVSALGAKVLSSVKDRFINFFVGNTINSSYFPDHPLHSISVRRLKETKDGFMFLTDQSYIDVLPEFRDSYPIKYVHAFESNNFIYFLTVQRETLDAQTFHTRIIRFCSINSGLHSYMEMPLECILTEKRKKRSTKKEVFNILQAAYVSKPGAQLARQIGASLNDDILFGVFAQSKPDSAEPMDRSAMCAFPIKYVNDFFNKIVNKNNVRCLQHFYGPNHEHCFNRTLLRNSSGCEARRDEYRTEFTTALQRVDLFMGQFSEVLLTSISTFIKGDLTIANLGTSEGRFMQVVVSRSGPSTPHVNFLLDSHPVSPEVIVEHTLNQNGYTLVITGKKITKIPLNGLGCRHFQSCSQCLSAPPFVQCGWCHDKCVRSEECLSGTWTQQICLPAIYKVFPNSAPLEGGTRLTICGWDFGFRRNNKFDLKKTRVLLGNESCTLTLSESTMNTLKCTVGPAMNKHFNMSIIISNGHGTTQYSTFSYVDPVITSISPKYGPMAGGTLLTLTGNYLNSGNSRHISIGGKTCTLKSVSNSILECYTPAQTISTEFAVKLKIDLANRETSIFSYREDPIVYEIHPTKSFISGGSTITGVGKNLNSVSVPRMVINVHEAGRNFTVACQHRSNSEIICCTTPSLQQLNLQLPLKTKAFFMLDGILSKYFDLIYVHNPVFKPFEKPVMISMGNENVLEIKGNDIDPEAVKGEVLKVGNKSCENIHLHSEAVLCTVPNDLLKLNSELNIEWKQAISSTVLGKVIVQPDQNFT
row,Binder,% of binding in the absence of HGF [%]
1,GSQQICDRKEYRFQACLSDAP [443-H10 peptide-displaying phage (SEQ ID NO: 371)],124
2,AGQFYCSGPPTFQCIMIGT (not fully specified (bridges); cysteine pairing not given here) [550-F11 peptide-displaying phage (SEQ ID NO: 089)],58
3,AGPWKCTGPPTFSCIQFGT [548-D08 peptide-displaying phage (SEQ ID NO: 090)],97
4,AGYWDCKGPPHFFCEWHGT [552-G11 peptide-displaying phage (SEQ ID NO: 080)],55
5,AGAFFCSGPPTFMCSLYGT [550-G07 peptide-displaying phage (SEQ ID NO: 098)],63
6,AGGFACGPPWDICWMFGT [573-F04 peptide-displaying phage (SEQ ID NO: 011)],76
7,AGSTDCRGHPTFECWGWGT [549-F06 peptide-displaying phage (SEQ ID NO: 086)],96
8,AGYFHCSGSPWFQCDYYGT [550-G08 peptide-displaying phage (SEQ ID NO: 081)],79
9,GSFNICPYQWCTLWAP [561-C08 peptide-displaying phage (SEQ ID NO: 010)],92
10,AGETKCSGPPYFYCWMEGT [545-E04 peptide-displaying phage (SEQ ID NO: 093)],48
11,AGNYWCSGPPSFICHAVGT [549-D02 peptide-displaying phage (SEQ ID NO: 091)],47
12,AGETFCSGWPTFECMQWGT [547-H03 peptide-displaying phage (SEQ ID NO: 095)],109
13,AGSYWCSGPPTFMCRYEGT [545-B12 peptide-displaying phage (SEQ ID NO: 085)],51
14,AGETFCVGNPSFECWSWGT [545-E05 peptide-displaying phage (SEQ ID NO: 094)],70
15,AGEIFCVGPPTFTCMWTGT [552-G09 peptide-displaying phage (SEQ ID NO: 096)],98

# Target: T1, cMet-Fc fusion protein (extracellular …)
# Assay: phage ELISA, cMet-Fc vs TRAIL-Fc
# Protocol: Protein phage ELISAs using peptide-displaying phage isolates from the various selection campaigns were performed to determine specificity of the peptides for cMet versus an unrelated Fc-fusion protein (TRAIL-Fe). Briefly, 384-well plates were coated overnight at 4 C with 0.5 μg/mL of cMet-Fc fusion protein or TRAIL-Fc fusion protein (background). The plates were blocked for 2 hours 37 C with 3% (w/v) BSA in PBS containing 0.05% (v/v) Tween-20 (PBST). The plates were washed with PBST and 100 μL of peptide-displaying phage were added to each well. The plates were incubated for 2 hours at room temperature and washed with PBST. cMet-binding peptide-displaying phage were detected using an HRP-conjugated anti-M13 antibody.
row,Binder,Protein ELISA (fold over background) [fold]
1,GSQQICDRKEYRFQACLSDAP [443-H10 peptide-displaying phage (SEQ ID NO: 371)],3.4
2,AGQFYCSGPPTFQCIMIGT (not fully specified (bridges); cysteine pairing not given here) [550-F11 peptide-displaying phage (SEQ ID NO: 089)],12.4
3,AGPWKCTGPPTFSCIQFGT [548-D08 peptide-displaying phage (SEQ ID NO: 090)],19.5
4,AGYWDCKGPPHFFCEWHGT [552-G11 peptide-displaying phage (SEQ ID NO: 080)],7.4
5,AGAFFCSGPPTFMCSLYGT [550-G07 peptide-displaying phage (SEQ ID NO: 098)],6.2
6,AGGFACGPPWDICWMFGT [573-F04 peptide-displaying phage (SEQ ID NO: 011)],5.6
7,AGSTDCRGHPTFECWGWGT [549-F06 peptide-displaying phage (SEQ ID NO: 086)],5.2
8,AGYFHCSGSPWFQCDYYGT [550-G08 peptide-displaying phage (SEQ ID NO: 081)],9.1
9,GSFNICPYQWCTLWAP [561-C08 peptide-displaying phage (SEQ ID NO: 010)],3
10,AGETKCSGPPYFYCWMEGT [545-E04 peptide-displaying phage (SEQ ID NO: 093)],16.3
11,AGNYWCSGPPSFICHAVGT [549-D02 peptide-displaying phage (SEQ ID NO: 091)],8.9
12,AGETFCSGWPTFECMQWGT [547-H03 peptide-displaying phage (SEQ ID NO: 095)],16.2
13,AGSYWCSGPPTFMCRYEGT [545-B12 peptide-displaying phage (SEQ ID NO: 085)],17.1
14,AGETFCVGNPSFECWSWGT [545-E05 peptide-displaying phage (SEQ ID NO: 094)],10.3
15,AGEIFCVGPPTFTCMWTGT [552-G09 peptide-displaying phage (SEQ ID NO: 096)],9.7

# Target: T2, human cMet expressed on 3T3 cells (human, UniProt P08581 25-1390)
# T2 construct: whole, on cells; cells fixed with glutaraldehyde; also called cell surface-expressed human cMet; 3T3 cells that over-express human cMet
# Assay: whole cell phage ELISA, 3T3 human cMet vs 3T3
# Protocol: Whole cell ELISAs were performed using 3T3 cells that over-express human cMet. […] Briefly, 96-well plates were seeded with 10⁵ cells per well. The plates were centrifuged for 5 minutes at 1600 rpm to pellet the cells. The resulting cell layer was fixed with 0.1% (v/v) glutaraldehyde for 12 minutes at 37 C. […] Peptide-displaying phage also were blocked in the above solution for 1 hour at 37 C. 100 μL of blocked phage was then added to each well and the plates were incubated for 1 hour at room temperature. The plates were washed with PBST. cMet-binding peptide-displaying phage were detected using an HRP-conjugated anti-M13 antibody.
# T2 sequence (P08581 25-1390): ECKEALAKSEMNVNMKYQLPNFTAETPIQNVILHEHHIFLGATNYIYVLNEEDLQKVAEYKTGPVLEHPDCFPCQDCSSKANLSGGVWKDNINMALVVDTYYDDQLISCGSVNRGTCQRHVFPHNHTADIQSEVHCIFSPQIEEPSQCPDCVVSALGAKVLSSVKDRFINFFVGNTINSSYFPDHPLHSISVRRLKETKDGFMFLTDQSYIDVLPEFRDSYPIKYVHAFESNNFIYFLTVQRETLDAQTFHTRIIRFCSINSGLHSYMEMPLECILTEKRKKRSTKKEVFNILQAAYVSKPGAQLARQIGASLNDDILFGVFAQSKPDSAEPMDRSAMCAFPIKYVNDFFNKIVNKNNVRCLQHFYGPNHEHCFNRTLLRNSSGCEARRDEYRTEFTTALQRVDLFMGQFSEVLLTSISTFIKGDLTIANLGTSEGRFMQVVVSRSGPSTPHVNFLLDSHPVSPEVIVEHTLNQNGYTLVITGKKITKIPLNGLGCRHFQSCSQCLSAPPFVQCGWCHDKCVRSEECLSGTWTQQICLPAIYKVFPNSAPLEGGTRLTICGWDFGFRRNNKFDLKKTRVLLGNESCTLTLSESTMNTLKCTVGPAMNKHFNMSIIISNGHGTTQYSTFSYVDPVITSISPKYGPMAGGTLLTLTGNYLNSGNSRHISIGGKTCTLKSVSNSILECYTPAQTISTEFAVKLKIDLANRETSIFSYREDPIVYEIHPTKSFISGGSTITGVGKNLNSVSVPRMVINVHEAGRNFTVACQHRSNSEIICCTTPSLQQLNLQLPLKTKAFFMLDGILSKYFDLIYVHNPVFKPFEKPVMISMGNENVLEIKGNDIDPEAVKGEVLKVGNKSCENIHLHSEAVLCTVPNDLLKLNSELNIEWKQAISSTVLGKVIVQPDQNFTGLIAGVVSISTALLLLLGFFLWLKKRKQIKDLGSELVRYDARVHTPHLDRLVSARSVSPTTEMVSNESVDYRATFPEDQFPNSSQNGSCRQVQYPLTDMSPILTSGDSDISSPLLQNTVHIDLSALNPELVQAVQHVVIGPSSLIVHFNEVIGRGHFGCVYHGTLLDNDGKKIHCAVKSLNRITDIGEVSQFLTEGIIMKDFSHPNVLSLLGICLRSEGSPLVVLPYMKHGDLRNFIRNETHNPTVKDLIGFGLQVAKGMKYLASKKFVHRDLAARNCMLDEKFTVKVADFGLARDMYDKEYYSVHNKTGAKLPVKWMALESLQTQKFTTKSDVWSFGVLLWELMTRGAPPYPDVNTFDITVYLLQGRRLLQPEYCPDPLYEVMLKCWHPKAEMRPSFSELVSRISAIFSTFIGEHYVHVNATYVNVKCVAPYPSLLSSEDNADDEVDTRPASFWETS
row,Binder,WC ELISA (fold over background) [fold]
1,GSQQICDRKEYRFQACLSDAP [443-H10 peptide-displaying phage (SEQ ID NO: 371)],1.4
2,AGQFYCSGPPTFQCIMIGT (not fully specified (bridges); cysteine pairing not given here) [550-F11 peptide-displaying phage (SEQ ID NO: 089)],1.23
3,AGPWKCTGPPTFSCIQFGT [548-D08 peptide-displaying phage (SEQ ID NO: 090)],1.23
4,AGYWDCKGPPHFFCEWHGT [552-G11 peptide-displaying phage (SEQ ID NO: 080)],1.23
5,AGAFFCSGPPTFMCSLYGT [550-G07 peptide-displaying phage (SEQ ID NO: 098)],1.27
6,AGGFACGPPWDICWMFGT [573-F04 peptide-displaying phage (SEQ ID NO: 011)],1.3
7,AGSTDCRGHPTFECWGWGT [549-F06 peptide-displaying phage (SEQ ID NO: 086)],1.3
8,AGYFHCSGSPWFQCDYYGT [550-G08 peptide-displaying phage (SEQ ID NO: 081)],1.4
9,GSFNICPYQWCTLWAP [561-C08 peptide-displaying phage (SEQ ID NO: 010)],1.37
10,AGETKCSGPPYFYCWMEGT [545-E04 peptide-displaying phage (SEQ ID NO: 093)],1.23
11,AGNYWCSGPPSFICHAVGT [549-D02 peptide-displaying phage (SEQ ID NO: 091)],1.27
12,AGETFCSGWPTFECMQWGT [547-H03 peptide-displaying phage (SEQ ID NO: 095)],1.23
13,AGSYWCSGPPTFMCRYEGT [545-B12 peptide-displaying phage (SEQ ID NO: 085)],1.27
14,AGETFCVGNPSFECWSWGT [545-E05 peptide-displaying phage (SEQ ID NO: 094)],1.27
15,AGEIFCVGPPTFTCMWTGT [552-G09 peptide-displaying phage (SEQ ID NO: 096)],1.27

# Target: T1, cMet-Fc fusion protein (extracellular …)
# Assay: phage ELISA on cMet-Fc, competitor HGF 500 ng/mL
# Protocol: as §1
row,Binder,% of binding in the absence of HGF [%]
1,GSQQICDRKEYRFQACLSDAP [443-H10 peptide-displaying phage (SEQ ID NO: 371)],143
2,AGQFYCSGPPTFQCIMIGT (not fully specified (bridges); cysteine pairing not given here) [550-F11 peptide-displaying phage (SEQ ID NO: 089)],23
3,AGPWKCTGPPTFSCIQFGT [548-D08 peptide-displaying phage (SEQ ID NO: 090)],62
4,AGYWDCKGPPHFFCEWHGT [552-G11 peptide-displaying phage (SEQ ID NO: 080)],41
5,AGAFFCSGPPTFMCSLYGT [550-G07 peptide-displaying phage (SEQ ID NO: 098)],36
6,AGGFACGPPWDICWMFGT [573-F04 peptide-displaying phage (SEQ ID NO: 011)],71
7,AGSTDCRGHPTFECWGWGT [549-F06 peptide-displaying phage (SEQ ID NO: 086)],40
8,AGYFHCSGSPWFQCDYYGT [550-G08 peptide-displaying phage (SEQ ID NO: 081)],58
9,GSFNICPYQWCTLWAP [561-C08 peptide-displaying phage (SEQ ID NO: 010)],96
10,AGETKCSGPPYFYCWMEGT [545-E04 peptide-displaying phage (SEQ ID NO: 093)],17
11,AGNYWCSGPPSFICHAVGT [549-D02 peptide-displaying phage (SEQ ID NO: 091)],36
12,AGETFCSGWPTFECMQWGT [547-H03 peptide-displaying phage (SEQ ID NO: 095)],53
13,AGSYWCSGPPTFMCRYEGT [545-B12 peptide-displaying phage (SEQ ID NO: 085)],42
14,AGETFCVGNPSFECWSWGT [545-E05 peptide-displaying phage (SEQ ID NO: 094)],32
15,AGEIFCVGPPTFTCMWTGT [552-G09 peptide-displaying phage (SEQ ID NO: 096)],68

# From patent publication US20120039802A1 (published 2012)
